Measurements: patent US20220220215A1 (CRESCENDO BIOLOGICS, published 2022)

Tests used:
[1] = target: T1, human PD-1 expressed on CHO cells (human, UniProt Q15116 21-288); test: FMAT/Mirrorball on CHO huPD1 cells
T1 construct: also called CHO huPD1; CHO human PD1 cells
Method: (§1) Binding of His-tagged molecules to CHO human CD137, CHO parent and CHO human PD1 cells was assessed using Fluorescence Microvolume Assay Technology (FMAT). All reagents were prepared in FMAT assay buffer (pH 7.4) containing PBS, 0.1% Bovine Serum Albumin, 0.05% Sodium Azide. […] Fluorescence emission was then measured on the TTP Mirrorball plate reader in the FL2 (502 nm-537 nm) and FL5 (677-800 nm) channels following excitation at 488 nm and 640 nm. Data was gated on FL5 perimeter and peak intensity and the FL2 median mean fluorescence intensity of the gated data used for determination of VH binding. Monovalent CD137 specific Humabody® VH, and trispecific molecules with a CD137 binding arm bound to CHO CD137 expressing cells. Trispecific Humabody® VH, with a PD1 binding arm bound to PD1 expressing cells.

[2] = target: T2, human CD137 expressed on CHO cells (human, UniProt Q07011 18-255); test: FMAT/Mirrorball on CHO huCD137 cells
T2 construct: also called CHO huCD137; CHO human CD137 cells
Method: as §1

[3] = target: human CD137 expressed on cells (Jurkat human CD137 NF-kB luciferase reporter cells; human CD8+ T cells) (human, UniProt Q07011 24-255); test: cell-based or functional assay
[4] = target: T3, recombinant Fc-tagged ectodomain of human CD137 (Acro Biosystems 41B-H5258) (human, UniProt Q07011 24-186); test: SPR, Biacore 8K, single-cycle kinetics; Fc-tagged ectodomain captured on Protein G chip; 1:1 model
T3 construct: Bought protein; not shown: Fc tag
Method: (§2) Binding of Humabody® VH constructs was measured using a single-cycle kinetics method using the BIAcore 8K instrument with 90 second sample injections with a sample concentration range of low nanomolar to high nanomolar. […] The Protein G sensor surface was regenerated with a 20 second injection of 10 mM Glycine buffer, pH 1.5 (GE Healthcare BR100354). Data were analysed using a 1:1 binding model in Biacore Insight Evaluation software, including Humabody® VH constructs with two PD-1 arms.

[5] = target: T4, recombinant Fc-tagged ectodomain of human PD1 (Acro Biosystems PD1-H5257) (human, UniProt Q15116 25-170); test: as above
T4 construct: Bought protein; not shown: Fc tag
Method: as §2

[6] = target: T5, Rhesus CD137-Fc tagged protein (rhesus, UniProt H9Z8K9 24-186); test: BLI (Octet RED384), CD137-Fc on Protein G sensor, 1:1 model
T5 construct: extracellular domain; The Octet paragraph gives no catalogue number; also called rhCD137-Fc
Method: Binding kinetics of purified monovalent VH molecules were measured on a ForteBio Octet RED 384 instrument. Human and Rhesus CD137-Fc tagged protein was diluted to 5 μg/ml in kinetics buffer (0.05% Tween, 1×PBS) and coupled to Protein G biosensors (ForteBio cat no. 18-5082) via the Fc tag. VH were serially diluted (typically 1:2 dilution series starting with 200 nM, VH at the highest concentration) and binding to the CD137-Fc-coupled Protein G biosensors measured. Binding kinetics were determined from the (blank subtracted) sensor gram trace using 1:1 binding models and ForteBio Octet Data Analysis 9.0 software. Example kinetic and binding affinity data obtained is shown Table 18 (monovalent VH).

Row | EC50 [1] | EC50 [2] | Kd [4] | koff [4] | kon [4] | Kd [5] | koff [5] | kon [5] | Binder | also measured
1 | 0.144 nM | 0.207 nM |  |  |  |  |  |  | TPP-943: PDA-6GS-172E1-13-6GS-HSA2-His (bispecific antibody, Single-chain VH fusion) EVQLVESGGGLVQPGRSLRLSCAASGFTFDDYALHWVRQAPGKDLEWVSGISWNGGSYGYADSVKGRFTISRDNAKNSLYLQMNSLRAEDTALYYCVREKGPGLTGSTADYYGLDAWGQGTMVTVSSGGGGSGGGGSGGGGSGGGGSGGGGSGGGGSEVQLVESGGGVVQPGGSLRLSCAASGFTFSNYGMHWVRQAPGKGLEWVAVISNDGNTKTYADSVKGRFTISRDNSKNTLYLQMNSLRAEDTAVYYCAQDETTTVTASYYFDYWGQGTLVTVSSGGGGSGGGGSGGGGSGGGGSGGGGSGGGGSEVQLLESGGGLVKPGGSLRLSCAASGFTVSSYTMNWVRQAPGKGLEWVSSISSSGRYIYYADSVKGRFTISRDNAKNSLYLQMNSLRAEDTAVYYCARDPRMVGNPHEFDIWGQGTMVTVSSAAAHHHHHH | 
2 |  |  | 2.02 nM | 0.000307 s⁻¹ | 152000 M⁻¹ s⁻¹ | 4.16 nM | 0.00241 s⁻¹ | 580000 M⁻¹ s⁻¹ | TPP-1409 CD137A-1GS-HSA2-1GS-PD138G7(G109D) (bispecific antibody) EVQLVESGGGLVQPGGSLRLSCAASGFTLSNYWMNWVRQAPGKGLEWVANINQDGSERYYVDSVKGRFTISRDNAKNSLYLQMNSLRAEDTAVYYCARGGEGYGVDHYGLDVSGQGTTVTVSSGGGGSEVQLVESGGGLVKPGGSLRLSCAASGFTFSNYNMNWVRQAPGKGLEWVSSISSAGTHIYYADSVKGRFTISRDNAKNSLYLQMNSLRAEDTAVYYCARDPHSTGWYKDFDYWGQGTLVTVSSGGGGSEVQLVESGGGVVRPGGSLRLSCAASGFTFDDYAMSWVRQAPGKGLEWVSGITWNGGSTGYADSVKDRFTISRDNAKNSLYLQMNSLRAEDTALYYCVRDKYSYAWSYDDFDIWGQGTMVTVSS | Jurkat-CD137/CHO-PD-1 Reporter Assay EC50 [3]: 0.134 nM
3 |  |  | 1.47 nM | 0.000121 s⁻¹ | 81800 M⁻¹ s⁻¹ | 7.57 nM | 0.00224 s⁻¹ | 296000 M⁻¹ s⁻¹ | TPP-1410 PD138G7(G109D)-1GS-CD137A-6GS-HSA2 (bispecific antibody) EVQLVESGGGVVRPGGSLRLSCAASGFTFDDYAMSWVRQAPGKGLEWVSGITWNGGSTGYADSVKDRFTISRDNAKNSLYLQMNSLRAEDTALYYCVRDKYSYAWSYDDFDIWGQGTMVTVSSGGGGSEVQLVESGGGLVQPGGSLRLSCAASGFTLSNYWMNWVRQAPGKGLEWVANINQDGSERYYVDSVKGRFTISRDNAKNSLYLQMNSLRAEDTAVYYCARGGEGYGVDHYGLDVSGQGTTVTVSSGGGGSGGGGSGGGGSGGGGSGGGGSGGGGSEVQLVESGGGLVKPGGSLRLSCAASGFTFSNYNMNWVRQAPGKGLEWVSSISSAGTHIYYADSVKGRFTISRDNAKNSLYLQMNSLRAEDTAVYYCARDPHSTGWYKDFDYWGQGTLVTVSS | 
4 |  |  | 1.93 nM | 0.000208 s⁻¹ | 108000 M⁻¹ s⁻¹ | 4.98 nM | 0.00267 s⁻¹ | 537000 M⁻¹ s⁻¹ | TPP-1411 PD138G7(G109D)-1GS-CD137A-1GS-HSA2 (bispecific antibody) EVQLVESGGGVVRPGGSLRLSCAASGFTFDDYAMSWVRQAPGKGLEWVSGITWNGGSTGYADSVKDRFTISRDNAKNSLYLQMNSLRAEDTALYYCVRDKYSYAWSYDDFDIWGQGTMVTVSSGGGGSEVQLVESGGGLVQPGGSLRLSCAASGFTLSNYWMNWVRQAPGKGLEWVANINQDGSERYYVDSVKGRFTISRDNAKNSLYLQMNSLRAEDTAVYYCARGGEGYGVDHYGLDVSGQGTTVTVSSGGGGSEVQLVESGGGLVKPGGSLRLSCAASGFTFSNYNMNWVRQAPGKGLEWVSSISSAGTHIYYADSVKGRFTISRDNAKNSLYLQMNSLRAEDTAVYYCARDPHSTGWYKDFDYWGQGTLVTVSS | 
5 |  |  | 95.1 nM | 0.00383 s⁻¹ | 40300 M⁻¹ s⁻¹ | 4.45 nM | 0.00113 s⁻¹ | 255000 M⁻¹ s⁻¹ | TPP-1408 PD138G7(G109D)-1GS-HSA2-1GS-CD137D (bispecific antibody) EVQLVESGGGVVRPGGSLRLSCAASGFTFDDYAMSWVRQAPGKGLEWVSGITWNGGSTGYADSVKDRFTISRDNAKNSLYLQMNSLRAEDTALYYCVRDKYSYAWSYDDFDIWGQGTMVTVSSGGGGSEVQLVESGGGLVKPGGSLRLSCAASGFTFSNYNMNWVRQAPGKGLEWVSSISSAGTHIYYADSVKGRFTISRDNAKNSLYLQMNSLRAEDTAVYYCARDPHSTGWYKDFDYWGQGTLVTVSSGGGGSEVQLVESGGGVVQPGGSLRLSCAASGFTFSNYGMHWVRQAPGKGLEWVAVISNDGNTKTYADSVKGRFTISRDNSKNTLYLQMNSLRAEDTAVYYCAQDETTTVTASYYFDYWGQGTLVTVSS | 
6 | 0.844 nM | 0.735 nM |  |  |  |  |  |  | TPP-950: PDA2-6GS-172E1-13-6GS-HSA2-His (bispecific antibody, Single-chain VH fusion (PD-1 VH, CD137 VH, HSA VH), His tag) EVQLVESGGGVVRPGGSLRLSCAASGFTFDDYAMSWVRQAPGKGLEWVSGITWNAGSTGYADSVKGRFTISRDNAKNSLYLQMNSLRAEDTALYYCVRDKYSYAWSYDDFDIWGQGTMVTVSSGGGGSGGGGSGGGGSGGGGSGGGGSGGGGSEVQLVESGGGVVQPGGSLRLSCAASGFTFSNYGMHWVRQAPGKGLEWVAVISNDGNTKTYADSVKGRFTISRDNSKNTLYLQMNSLRAEDTAVYYCAQDETTTVTASYYFDYWGQGTLVTVSSGGGGSGGGGSGGGGSGGGGSGGGGSGGGGSEVQLVESGGGLVKPGGSLRLSCAASGFTFSNYNMNWVRQAPGKGLEWVSSISSAGTHIYYADSVKGRFTISRDNAKNSLYLQMNSLRAEDTAVYYCARDPHSTGWYKDFDYWGQGTLVTVSSAAAHHHHHH | 
7 | 1.23 nM |  |  |  |  |  |  |  | TPP-1025: CD137A -6GS-HSA3-2-6GS-PDA2-His (bispecific antibody, Single-chain VH fusion (CD137 VH, HSA VH, PD-1 VH), His tag) EVQLVESGGGLVQPGGSLRLSCAASGFTLSNYWMNWVRQAPGKGLEWVANINQDGSERYYVDSVKGRFTISRDNAKNSLYLQMNSLRAEDTAVYYCARGGEGYGVDHYGLDVSGQGTTVTVSSGGGGSGGGGSGGGGSGGGGSGGGGSGGGGSEVQLLESGGGLVKPGGSLRLSCAASGFTVSSYTMNWVRQAPGKGLEWVSSISSSGRYIYYADSVKGRFTISRDNAKNSLYLQMNSLRAEDTAVYYCARDPRMVGNPHEFDIWGQGTMVTVSSGGGGSGGGGSGGGGSGGGGSGGGGSGGGGSEVQLVESGGGVVRPGGSLRLSCAASGFTFDDYAMSWVRQAPGKGLEWVSGITWNAGSTGYADSVKGRFTISRDNAKNSLYLQMNSLRAEDTALYYCVRDKYSYAWSYDDFDIWGQGTMVTVSSAAAHHHHHH | 
8 | 0.164 nM | 0.157 nM |  |  |  |  |  |  | TPP-942: PDA-6GS-172E1-13-6GS-HSA2-2-His (bispecific antibody, Single-chain fusion of VH single domains (PD-1 VH, CD137 VH, HSA VH) joined by 6GS linkers, His tag) EVQLVESGGGLVQPGRSLRLSCAASGFTFDDYALHWVRQAPGKDLEWVSGISWNGGSYGYADSVKGRFTISRDNAKNSLYLQMNSLRAEDTALYYCVREKGPGLTGSTADYYGLDAWGQGTMVTVSSGGGGSGGGGSGGGGSGGGGSGGGGSGGGGSEVQLVESGGGVVQPGGSLRLSCAASGFTFSNYGMHWVRQAPGKGLEWVAVISNDGNTKTYADSVKGRFTISRDNSKNTLYLQMNSLRAEDTAVYYCAQDETTTVTASYYFDYWGQGTLVTVSSGGGGSGGGGSGGGGSGGGGSGGGGSGGGGSEVQLVESGGGLVKPGGSLRLSCAASGFTFSNYNMNWVRQAPGKGLEWVSSISSAGTHIYYADSVKGRFTISRDNAKNSLYLQMNSLRAEDTAVYYCARDPHSTGWYKDFDYWGQGTLVTVSSAAAHHHHHH | 
9 |  | 1.21 nM |  |  |  |  |  |  | 003BB172-E01-12 (VHH, Human VH single domain antibody, monovalent) VHH: EVQLVESGGGLVQPGRSLRLSCAASGFTFSNYGMHWVRQAPGKGLEWVAVISNDGNTKTYADSVKGRFTISRDNSKNTLYLQMNSLRAEDTAVYYCAQDETTTVTASYYFDYWGQGTLVTVSS | Kd [6]: 38.6 nM; koff [6]: 0.0023 s⁻¹; kon [6]: 59700 M⁻¹ s⁻¹
10 |  | 0.954 nM |  |  |  |  |  |  | 003BB172-E01-13 (VHH, Human VH single domain antibody, monovalent; also called CD137D; 172E1-13) VHH: EVQLVESGGGVVQPGGSLRLSCAASGFTFSNYGMHWVRQAPGKGLEWVAVISNDGNTKTYADSVKGRFTISRDNSKNTLYLQMNSLRAEDTAVYYCAQDETTTVTASYYFDYWGQGTLVTVSS | Kd [6]: 22.8 nM; koff [6]: 0.00253 s⁻¹; kon [6]: 111000 M⁻¹ s⁻¹
